This data set concerns Escherichia coli TOP10. The experiment in a line: shrunken log2 fold change of peptide-encoding DNA abundance (4.5 h post-induction vs induction); higher = less antimicrobial activity (less host growth inhibition). The note with it: time post-induction: 4.5 h; library: site-saturation at positions 5, 18, 19, 20.
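Further: peptides expressed intracellularly from a pBAD plasmid library in pooled LB shake-flask culture, induced with 0.3% L-arabinose, DNA abundance read by NGS, three biological replicates, DESeq2 with apeglm shrinkage.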

Take RRIRRRPPRLPRPRPRPVTWPRP: the “shrunken log2 fold change” value amounted to 0.182.

RRIRRRPPRLPRPRPRPVQGPRP: the “shrunken log2 fold change” value was determined as 0.223.

Consider RRIRIRPPRLPRPRPRPVGNPRP, for which the “shrunken log2 fold change” value was 0.00174.

For RRIRFRPPRLPRPRPRPQPMPRP, the “shrunken log2 fold change” value is 0.302.

As for RRIRFRPPRLPRPRPRPPHKPRP, the “shrunken log2 fold change” value was -0.027.

With RRIRLRPPRLPRPRPRPKVFPRP, the “shrunken log2 fold change” value stood at 0.0303.

On to RRIRRRPPRLPRPRPRPHKHPRP, for which the “shrunken log2 fold change” value was -0.165.

As for RRIRGRPPRLPRPRPRPIGIPRP, the “shrunken log2 fold change” value is -0.159.

Consider RRIRIRPPRLPRPRPRPDFDPRP, for which the “shrunken log2 fold change” value is -0.137.

With RRIRRRPPRLPRPRPRPMEGPRP, the “shrunken log2 fold change” value turned out to be 0.0518.

RRIRERPPRLPRPRPRPSECPRP: the “shrunken log2 fold change” value is -0.592.

Take RRIRTRPPRLPRPRPRPGNSPRP: the “shrunken log2 fold change” value is -0.169.

For RRIRTRPPRLPRPRPRPQIEPRP, the “shrunken log2 fold change” value was -0.107.

As to RRIRKRPPRLPRPRPRPYCNPRP, the “shrunken log2 fold change” value turned out to be 0.068.

Regarding RRIRSRPPRLPRPRPRPREDPRP, the “shrunken log2 fold change” value worked out at 0.432.

On to RRIRYRPPRLPRPRPRPIWRPRP, for which the “shrunken log2 fold change” value came out at 0.0429.

As for RRIRHRPPRLPRPRPRPIYFPRP, the “shrunken log2 fold change” value was -0.123.

As to RRIRVRPPRLPRPRPRPLNIPRP, the “shrunken log2 fold change” value is -0.0458.

As for RRIRFRPPRLPRPRPRPLYRPRP, the “shrunken log2 fold change” value was -0.702.

Turning to RRIRMRPPRLPRPRPRPILKPRP, the “shrunken log2 fold change” value was -0.206.

On to RRIRFRPPRLPRPRPRPDLNPRP, for which the “shrunken log2 fold change” value is -0.321.

Turning to RRIRCRPPRLPRPRPRPSMHPRP, the “shrunken log2 fold change” value is -0.346.

As for RRIRSRPPRLPRPRPRPNHHPRP, the “shrunken log2 fold change” value is -0.566.

For the sequence RRIRTRPPRLPRPRPRPDCHPRP, the “shrunken log2 fold change” value is -0.0374.

On to RRIRWRPPRLPRPRPRPNFKPRP, for which the “shrunken log2 fold change” value was -0.264.

On to RRIRVRPPRLPRPRPRPDDKPRP, for which the “shrunken log2 fold change” value is -0.446.

With RRIRMRPPRLPRPRPRPFNLPRP, the “shrunken log2 fold change” value is -0.16.

Take RRIRSRPPRLPRPRPRPGAPPRP: the “shrunken log2 fold change” value is 0.613.

Take RRIRLRPPRLPRPRPRPYVWPRP: the “shrunken log2 fold change” value is -0.872.

As to RRIRIRPPRLPRPRPRPQPKPRP, the “shrunken log2 fold change” value was -0.0343.

Consider RRIRIRPPRLPRPRPRPFGVPRP, for which the “shrunken log2 fold change” value was -0.0635.

As to RRIRLRPPRLPRPRPRPFNGPRP, the “shrunken log2 fold change” value is -0.0434.

For the sequence RRIRGRPPRLPRPRPRPMAQPRP, the “shrunken log2 fold change” value came to 1.07.

Turning to RRIRKRPPRLPRPRPRPEENPRP, the “shrunken log2 fold change” value was -0.00213.

Consider RRIRFRPPRLPRPRPRPFYQPRP, for which the “shrunken log2 fold change” value is -0.537.

In the case of RRIRGRPPRLPRPRPRPFYTPRP, the “shrunken log2 fold change” value was -0.173.

RRIRNRPPRLPRPRPRPARCPRP: the “shrunken log2 fold change” value came to 0.319.

Consider RRIRFRPPRLPRPRPRPARWPRP, for which the “shrunken log2 fold change” value worked out at 0.577.

Consider RRIRHRPPRLPRPRPRPTRWPRP, for which the “shrunken log2 fold change” value turned out to be 0.137.

For the sequence RRIRYRPPRLPRPRPRPSKKPRP, the “shrunken log2 fold change” value was -0.0925.

As for RRIRVRPPRLPRPRPRPNLYPRP, the “shrunken log2 fold change” value was -0.563.

For RRIRPRPPRLPRPRPRPAIKPRP, the “shrunken log2 fold change” value is -0.339.

RRIRYRPPRLPRPRPRPNGKPRP: the “shrunken log2 fold change” value was -0.186.

As to RRIRSRPPRLPRPRPRPAHCPRP, the “shrunken log2 fold change” value is 0.0412.

RRIRWRPPRLPRPRPRPCTPPRP: the “shrunken log2 fold change” value was -0.0412.

Take RRIRIRPPRLPRPRPRPDICPRP: the “shrunken log2 fold change” value was -0.0265.

For the sequence RRIRSRPPRLPRPRPRPCICPRP, the “shrunken log2 fold change” value was -0.209.

In the case of RRIRQRPPRLPRPRPRPNWRPRP, the “shrunken log2 fold change” value came out at 0.107.

In the case of RRIRWRPPRLPRPRPRPQSMPRP, the “shrunken log2 fold change” value was found to be 0.0679.

As for RRIRKRPPRLPRPRPRPPGGPRP, the “shrunken log2 fold change” value is 0.811.

With RRIRTRPPRLPRPRPRPNHRPRP, the “shrunken log2 fold change” value is -0.209.

With RRIRDRPPRLPRPRPRPYLRPRP, the “shrunken log2 fold change” value is -0.0137.

As to RRIRIRPPRLPRPRPRPPHIPRP, the “shrunken log2 fold change” value was -0.542.

Consider RRIRHRPPRLPRPRPRPQWCPRP, for which the “shrunken log2 fold change” value was -0.218.

RRIRIRPPRLPRPRPRPLNAPRP: the “shrunken log2 fold change” value is -0.107.

Regarding RRIRKRPPRLPRPRPRPWLPPRP, the “shrunken log2 fold change” value was 0.0665.

Regarding RRIRDRPPRLPRPRPRPKEHPRP, the “shrunken log2 fold change” value was found to be 0.0267.

Take RRIRFRPPRLPRPRPRPGYSPRP: the “shrunken log2 fold change” value is -0.934.

Take RRIRQRPPRLPRPRPRPHITPRP: the “shrunken log2 fold change” value is -1.1.

With RRIRCRPPRLPRPRPRPAHGPRP, the “shrunken log2 fold change” value is 0.23.

Regarding RRIRKRPPRLPRPRPRPVHWPRP, the “shrunken log2 fold change” value was found to be 0.621.

As to RRIRPRPPRLPRPRPRPVSSPRP, the “shrunken log2 fold change” value is -0.0455.

In the case of RRIRVRPPRLPRPRPRPEPKPRP, the “shrunken log2 fold change” value is 0.13.

Turning to RRIRQRPPRLPRPRPRPIAGPRP, the “shrunken log2 fold change” value turned out to be 0.139.

As to RRIRNRPPRLPRPRPRPWYGPRP, the “shrunken log2 fold change” value is -0.56.

On to RRIRVRPPRLPRPRPRPRLQPRP, for which the “shrunken log2 fold change” value was -0.000502.

Take RRIRIRPPRLPRPRPRPIPKPRP: the “shrunken log2 fold change” value was -0.0993.

As to RRIRPRPPRLPRPRPRPKVNPRP, the “shrunken log2 fold change” value was -0.148.

Consider RRIRERPPRLPRPRPRPTINPRP, for which the “shrunken log2 fold change” value is -0.399.

On to RRIRVRPPRLPRPRPRPGKPPRP, for which the “shrunken log2 fold change” value was 0.0464.

Take RRIRSRPPRLPRPRPRPQINPRP: the “shrunken log2 fold change” value was -0.46.

Take RRIRARPPRLPRPRPRPAHTPRP: the “shrunken log2 fold change” value was determined as 0.544.

In the case of RRIRWRPPRLPRPRPRPCMNPRP, the “shrunken log2 fold change” value was 0.297.

Take RRIRKRPPRLPRPRPRPRSVPRP: the “shrunken log2 fold change” value was found to be 0.402.

RRIRRRPPRLPRPRPRPEFVPRP: the “shrunken log2 fold change” value is -0.0836.

In the case of RRIRCRPPRLPRPRPRPIDLPRP, the “shrunken log2 fold change” value is -0.271.

Consider RRIRCRPPRLPRPRPRPWPWPRP, for which the “shrunken log2 fold change” value came to 0.0405.

With RRIRWRPPRLPRPRPRPMFTPRP, the “shrunken log2 fold change” value was -0.0283.

Regarding RRIRWRPPRLPRPRPRPNSWPRP, the “shrunken log2 fold change” value was -0.0727.

For RRIRKRPPRLPRPRPRPLPIPRP, the “shrunken log2 fold change” value is 0.143.

On to RRIRRRPPRLPRPRPRPKCQPRP, for which the “shrunken log2 fold change” value amounted to 0.506.

Take RRIRSRPPRLPRPRPRPEKKPRP: the “shrunken log2 fold change” value turned out to be 0.0751.

For the sequence RRIRLRPPRLPRPRPRPSAVPRP, the “shrunken log2 fold change” value was -0.16.

Take RRIRQRPPRLPRPRPRPPLIPRP: the “shrunken log2 fold change” value was found to be 0.0445.

As for RRIRVRPPRLPRPRPRPWPCPRP, the “shrunken log2 fold change” value was -0.22.

On to RRIRWRPPRLPRPRPRPPNHPRP, for which the “shrunken log2 fold change” value amounted to 0.0941.

Take RRIRKRPPRLPRPRPRPKEVPRP: the “shrunken log2 fold change” value was determined as 0.0319.

As to RRIRIRPPRLPRPRPRPHPNPRP, the “shrunken log2 fold change” value was -0.404.

On to RRIRDRPPRLPRPRPRPRSPPRP, for which the “shrunken log2 fold change” value was -0.183.

In the case of RRIRTRPPRLPRPRPRPGDHPRP, the “shrunken log2 fold change” value was 0.00667.

Take RRIRGRPPRLPRPRPRPTLTPRP: the “shrunken log2 fold change” value was found to be 1.1.

Values taken from the supplement of paper PMC9112550, “Optimization of the antimicrobial peptide Bac7 by deep mutational scanning” (BMC Biology, 2022).
